Tests used:
[1] = biological target: T1, human IL-17RB protein (recombinant, R&D systems) (human); experiment: ELISA, coated receptor; SM17 at 0.4 µg/mL; well 1
T1 construct: Bought protein; also called hIL17RB
T1 sequence (Q9NRM6 whole entry, looked up): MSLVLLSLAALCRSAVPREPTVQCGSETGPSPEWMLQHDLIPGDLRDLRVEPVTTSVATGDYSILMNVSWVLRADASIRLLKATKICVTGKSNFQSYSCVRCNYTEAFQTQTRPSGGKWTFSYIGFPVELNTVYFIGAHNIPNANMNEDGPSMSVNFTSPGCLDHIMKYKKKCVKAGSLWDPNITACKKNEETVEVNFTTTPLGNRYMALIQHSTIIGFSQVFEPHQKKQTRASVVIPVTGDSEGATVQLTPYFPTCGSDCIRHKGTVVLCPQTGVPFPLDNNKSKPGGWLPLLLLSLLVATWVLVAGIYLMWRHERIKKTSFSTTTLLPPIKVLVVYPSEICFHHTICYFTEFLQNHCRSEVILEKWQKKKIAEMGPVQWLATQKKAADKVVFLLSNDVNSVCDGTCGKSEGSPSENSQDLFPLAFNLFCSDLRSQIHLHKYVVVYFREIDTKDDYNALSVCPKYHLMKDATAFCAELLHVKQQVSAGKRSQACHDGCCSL

[2] = biological target: T2, human IL-17 receptor subunit A (human, UniProt Q96F46 33-320); experiment: ELISA, coated receptor; SM17 at 0.4 µg/mL; well 1
T2 construct: also called IL17RA; hIL17RA

[3] = biological target: T3, human IL-17 receptor subunit C (human, UniProt Q8NAC3-2 21-467, limits assumed); experiment: ELISA, coated receptor; SM17 at 0.4 µg/mL; well 1
T3 construct: also called IL17RC; hIL17RC
T3 sequence (looked up): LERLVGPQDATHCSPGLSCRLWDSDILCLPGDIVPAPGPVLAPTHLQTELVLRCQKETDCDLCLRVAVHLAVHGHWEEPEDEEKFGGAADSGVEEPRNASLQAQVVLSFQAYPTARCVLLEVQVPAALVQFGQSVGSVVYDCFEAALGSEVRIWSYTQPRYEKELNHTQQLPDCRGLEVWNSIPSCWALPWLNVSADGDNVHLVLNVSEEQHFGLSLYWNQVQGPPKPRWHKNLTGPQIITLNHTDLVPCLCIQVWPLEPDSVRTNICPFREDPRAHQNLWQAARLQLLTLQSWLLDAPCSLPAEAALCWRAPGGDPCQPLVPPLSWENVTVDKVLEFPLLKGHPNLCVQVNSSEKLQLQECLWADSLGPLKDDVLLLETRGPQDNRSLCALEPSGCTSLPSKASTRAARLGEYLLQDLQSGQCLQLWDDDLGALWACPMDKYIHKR

[4] = biological target: T4, human IL-17 receptor subunit D (human, UniProt Q8NFM7 28-299, limits assumed); experiment: ELISA, coated receptor; SM17 at 0.4 µg/mL; well 1
T4 construct: also called IL17RD; hIL 17RD
T4 sequence (looked up): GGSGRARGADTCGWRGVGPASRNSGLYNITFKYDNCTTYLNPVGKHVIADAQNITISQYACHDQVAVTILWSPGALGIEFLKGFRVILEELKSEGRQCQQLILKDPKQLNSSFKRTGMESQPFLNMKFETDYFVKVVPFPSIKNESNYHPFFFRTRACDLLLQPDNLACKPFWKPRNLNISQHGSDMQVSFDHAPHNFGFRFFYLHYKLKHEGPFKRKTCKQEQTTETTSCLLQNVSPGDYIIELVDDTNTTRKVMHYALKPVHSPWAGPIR

[5] = biological target: T5, human IL-17 receptor subunit E (human, UniProt Q8NFR9 24-454, limits assumed); experiment: ELISA, coated receptor; SM17 at 0.4 µg/mL; well 1
T5 construct: also called hIL17RE
T5 sequence (looked up): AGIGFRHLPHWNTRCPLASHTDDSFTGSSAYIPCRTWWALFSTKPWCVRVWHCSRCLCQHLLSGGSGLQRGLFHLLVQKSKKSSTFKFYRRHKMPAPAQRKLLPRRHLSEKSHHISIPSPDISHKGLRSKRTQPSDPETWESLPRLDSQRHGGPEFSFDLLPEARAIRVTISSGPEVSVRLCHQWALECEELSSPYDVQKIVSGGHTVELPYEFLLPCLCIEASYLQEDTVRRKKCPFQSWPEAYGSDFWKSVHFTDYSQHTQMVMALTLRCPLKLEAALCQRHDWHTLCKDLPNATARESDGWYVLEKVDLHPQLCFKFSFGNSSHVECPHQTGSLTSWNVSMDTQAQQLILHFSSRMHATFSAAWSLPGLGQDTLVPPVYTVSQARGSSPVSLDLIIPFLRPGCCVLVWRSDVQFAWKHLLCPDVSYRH

[6] = biological target: T1, human IL-17RB protein (recombinant, R&D …); experiment: ELISA, coated receptor; SM17 at 0.0032 µg/mL; well 1
[7] = biological target: T2, human IL-17 receptor subunit A; experiment: as above
[8] = biological target: T3, human IL-17 receptor subunit C; experiment: as above
[9] = biological target: T4, human IL-17 receptor subunit D; experiment: as above
[10] = biological target: T5, human IL-17 receptor subunit E; experiment: as above
[11] = biological target: T1, human IL-17RB protein (recombinant, R&D …); experiment: ELISA, coated receptor; SM17 at 0.0032 µg/mL; well 2
[12] = biological target: T2, human IL-17 receptor subunit A; experiment: as above
[13] = biological target: T3, human IL-17 receptor subunit C; experiment: as above
[14] = biological target: T4, human IL-17 receptor subunit D; experiment: as above

B1: SM17 (antibody, human IgG4 S228P, kappa, V domains shown)
VH: QVQLVQSGAEVKKPGASVKVSCKASGYTFISYWMNWVRQAPGQGLEWMGRIDPYDSEIQYNQKFKDRVTMTRDTSISTAYMELSRLRSDDTAVYYCARSGGFDWFAYWGQGTLVTVSS
VL: DIQMTQSPSSLSASVGDRVTITCRASENINSNLAWYQQKPGKAPKLLLYDVTNLADGVPSRFSGSGSGTDYTLTISSLQPEDFATYYCQHFWGPPYTFGGGTKVEIKR
notes: other paragraphs and claim 15 call the same entries VH and VL; also called humanized anti-IL17RB monoclonal antibody
- OD 450 nm Absorption [1]: 1.26 OD450
- OD 450 nm Absorption [2]: 0.21 OD450
- OD 450 nm Absorption [3]: 0.25 OD450
- OD 450 nm Absorption [4]: 0.22 OD450
- OD 450 nm Absorption [5]: 0.08 OD450
- OD 450 nm Absorption [6]: 0.16 OD450
- OD 450 nm Absorption [7]: 0.2 OD450
- OD 450 nm Absorption [8]: 0.03 OD450
- OD 450 nm Absorption [9]: 0.04 OD450
- OD 450 nm Absorption [10]: -0.01 OD450
- OD 450 nm Absorption [11]: 0.07 OD450
- OD 450 nm Absorption [12]: -0.03 OD450
- OD 450 nm Absorption [13]: -0.04 OD450
- OD 450 nm Absorption [14]: -0.04 OD450

From patent US20240409647A1 (SINOMAB BIOSCIENCE, published 2024)
